# Data: the supplement of paper PMC10567573
# B1: ETS2 (parent)
# chain: TSGKRYVYRFVCDLQNLLGFTPEE
# B2: PPEF2 (parent)
# chain: FIPSSHNDRDFLTRIFTEDRFAQD
# Variants of: B1
# Assay: protein stability index of a GFP-peptide fusion (GPS, HEK-293T) (PSI 1-6); higher = more stable
# Conditions: c terminus: a fixed tail appended
# 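Further: lentivirally expressed fusions sorted by FACS into six bins by GFP to DsRed ratio, PSI derived from sequencing read proportions per bin multiplied by bin number.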
row,Variant,protein stability index
1,TSGKRYVYRFVCDLQNLLGFTKEE,1.83
2,TSGKRYVYRFVCDLQNLLGFTGEE,1.63
3,TSGKRYVYRFVCDLQNLLGFTFEE,1.89
4,TSGKEYVYRFVCDLQNLLGFTPEE,1.69
5,TSGKREVYRFVCDLQNLLGFTPEE,1.4
6,TSGKRNVYRFVCDLQNLLGFTPEE,1.52
7,TSGKRHVYRFVCDLQNLLGFTPEE,2.41
8,TSGKRYVYRFVCDLQNLLGFTPSE,2.38
9,TSGKRYVYRFVCDLQNLLGFTPFE,2.66
10,TSGKRYVYRFVCDLQNLLGFTPEY,2.38
11,TSGKRYVYRFVCDLQNLLGFTPEQ,1.89
12,TSGKRYVYRWVCDLQNLLGFTPEE,2.42
13,TSGKRYVYRYVCDLQNLLGFTPEE,3.17
14,TSGKRYVYRFVADLQNLLGFTPEE,1.92
15,TSGKRYVYRFVCDMQNLLGFTPEE,2.14
16,TSGKRYVYRFVCDRQNLLGFTPEE,2.35
17,TSDKRYVYRFVCDLQNLLGFTPEE,3.19
18,TSCKRYVYRFVCDLQNLLGFTPEE,1.81
19,TSTKRYVYRFVCDLQNLLGFTPEE,1.86
20,TSYKRYVYRFVCDLQNLLGFTPEE,2.09

row,Variant,protein stability index
1,TSGKRYVYRFVCPLQNLLGFTPEE,3.25
2,TSGKRYVYRFVCGLQNLLGFTPEE,2.41
3,TSGKRYVYRFVCDLQNSLGFTPEE,2.12
4,TSGYRYVYRFVCDLQNLLGFTPEE,3.33
5,TSGLRYVYRFVCDLQNLLGFTPEE,2.8
6,TSGKRYVCRFVCDLQNLLGFTPEE,1.35
7,TSGKRYVIRFVCDLQNLLGFTPEE,2.56
8,TSGKRYVARFVCDLQNLLGFTPEE,2.12
9,TSGKRYVHRFVCDLQNLLGFTPEE,2.15
10,TSGKRYVGRFVCDLQNLLGFTPEE,2.15
11,TSGKRYVWRFVCDLQNLLGFTPEE,2.01
12,TSGKRYVSRFVCDLQNLLGFTPEE,2.23
13,TSGKRYVYRFVCDLQNLSGFTPEE,1.87
14,TSGKRYVYRFVCDLQNLGGFTPEE,1.92
15,TSGKRYVYRFVCDLQNLIGFTPEE,1.2
16,TSGKRYVYRFVCDLQNLLGFFPEE,2.02
17,TSGKRYVYRFVCDLQNLLGFCPEE,1.32
18,TSGKRYVYRFVCDLQNLLGFIPEE,1.76
19,TSGKRYVYRFFCDLQNLLGFTPEE,2.56
20,TSGKRYVYRFMCDLQNLLGFTPEE,2.85

row,Variant,protein stability index
1,TSGKRYVYRFACDLQNLLGFTPEE,3.07
2,TSGKRYVYRFHCDLQNLLGFTPEE,2.07
3,TSGKRYVYRFVCDLQTLLGFTPEE,1.97
4,TSGKRYVYRFVCDLQILLGFTPEE,2.03
5,TSGKRYDYRFVCDLQNLLGFTPEE,1.46
6,TSGKRYEYRFVCDLQNLLGFTPEE,1.3
7,TSGKRYPYRFVCDLQNLLGFTPEE,1.84
8,TSGKRYVYRFVCDLQNLLGETPEE,2
9,TSGKRYVYYFVCDLQNLLGFTPEE,1.79
10,TSGKRYVYPFVCDLQNLLGFTPEE,2.48
11,TSGKRYVYGFVCDLQNLLGFTPEE,1.58
12,TSGKRYVYHFVCDLQNLLGFTPEE,1.65
13,TSGKRYVYTFVCDLQNLLGFTPEE,2.15
14,TSGKRYVYDFVCDLQNLLGFTPEE,1.66
15,TSGKRYVYRFVCDLQNLLYFTPEE,2.52
16,TSGKRYVYRFVCDLQNLLWFTPEE,2.65
17,TSGKRYVYRFVCDLQNLLVFTPEE,2.01
18,TSGKRYVYRFVCDLQNLLPFTPEE,2.07
19,TSGKRYVYRFVCDLDNLLGFTPEE,1.61
20,KSGKRYVYRFVCDLQNLLGFTPEE,1.66

# Variants of: B2
# Assay: as above
# Conditions: c terminus: a fixed tail appended
row,Variant,protein stability index
1,FIPSSHNDLDFLTRIFTEDRFAQD,1.81
2,FIPSSHNDPDFLTRIFTEDRFAQD,1.69
3,FIPSSHNDVDFLTRIFTEDRFAQD,2.2
4,FIPSSHNDMDFLTRIFTEDRFAQD,2.3
5,FIPSSHNDCDFLTRIFTEDRFAQD,2.23
6,FIPSSHNDTDFLTRIFTEDRFAQD,1.74
7,FIPSSHNDADFLTRIFTEDRFAQD,2.23
8,FIPSSHNDDDFLTRIFTEDRFAQD,2.18
9,FIPSSHNDFDFLTRIFTEDRFAQD,2.21
10,FIPSSHNDGDFLTRIFTEDRFAQD,2.01
11,FIPSSHNDRDFLTRIFVEDRFAQD,1.85
12,FIPSSHNDRDFLTRIFMEDRFAQD,2.54
13,FIPSSHNDRDFLTRIFQEDRFAQD,1.79
14,FIPSSHNDRDFLTRIFIEDRFAQD,2.08
15,FHPSSHNDRDFLTRIFTEDRFAQD,2.06
16,FDPSSHNDRDFLTRIFTEDRFAQD,4.44
17,FWPSSHNDRDFLTRIFTEDRFAQD,2.23

row,Variant,protein stability index
1,FAPSSHNDRDFLTRIFTEDRFAQD,3.29
2,FSPSSHNDRDFLTRIFTEDRFAQD,2.2
3,FTPSSHNDRDFLTRIFTEDRFAQD,3.63
4,FIPSSWNDRDFLTRIFTEDRFAQD,1.71
5,FIPSSPNDRDFLTRIFTEDRFAQD,1.49
6,FIPSSANDRDFLTRIFTEDRFAQD,1.71
7,FIPSSRNDRDFLTRIFTEDRFAQD,1.68
8,FIPSSHNDRDFLTRIFTELRFAQD,1.96
9,FIPSSHNDRDFLTRIFTESRFAQD,2.51
10,FIPSSHNDRDFLTRIFTEARFAQD,3.2
11,FIPSSHNDRDFLTRIFTETRFAQD,2.8
12,FIPSSHNDRDFLTRIFTERRFAQD,1.8
13,FIPSSHNDRDFLTRIFTEYRFAQD,1.79
14,FIPSSHNDRDFLTRIFTEIRFAQD,2.76
15,FIPSSHNDRDFLTRIFTEVRFAQD,2.14
16,FIPSSHNDRMFLTRIFTEDRFAQD,1.87
17,FIPSSHNDRKFLTRIFTEDRFAQD,1.89
